Numbering of substitutions follows the chain as printed. In names and notes the source's numbering stands.
B1: FLP129: PfHPPD variant E335P, G336F, K339A, A340Q (protein)
chain: MADLYENPMGLMGFEFIEFASPTPGTLEPIFEIMGFTKVATHRSKNVHLYRQGEINLILNNEPNSIASYFAAEHGPSVCGMAFRVKDSQKAYNRALELGAQPIHIDTGPMELNLPAIKGIGGAPLYLIDRFGEGSSIYDIDFVYLEGVERNPVGAGLKVIDHLTHNVYRGRMVYWANFYEKLFNFREARYFDIKGEYTGLTSKAMSAPDGMIRIPLNEESSKGAGQIEEFLMQFNGEGIQHVAFLTDDLVKTWDALKKIGMRFMTAPPDTYYEMLEGRLPDHGEPVDQLQARGILLDGSSVEGDKRLLLQIFSETLMGPVFFEFIQRKGDDGFGPFNFAQLFESIERDQVRRGVLTAD
modifications: HPPD variant - FLP129
notes: PfHPPD variant E335P, G336F, K339A, A340Q
B2: PfG336W: reference PfHPPD mutant G336W (protein)
chain: B1 chain with P335E, F336W, A339K, Q340A
modifications: HPPD variant - Pf336W
B3: PfEvo33: reference PfHPPD mutant E335P, G336W (protein)
chain: B1 chain with F336W, A339K, Q340A
modifications: HPPD variant - PfEvo33
B4: PfG336Y: reference PfHPPD mutant G336Y (protein)
chain: B1 chain with P335E, F336Y, A339K, Q340A
modifications: HPPD variant - Pf336Y

Experiments:
T0 soybean plants = assay: greenhouse spray test of T0 soybean plants for tolerance to mesotrione; format: in vivo; details: 316 grams AI per hectare
Protocol: T0 soybean plants expressing an HPPD inhibitor tolerant enzyme of the present invention, along with a gene conferring tolerance to glyphosate and a gene conferring tolerance to glufosinate or having a “plant expression cassette”, which includes only an HPPD inhibitor tolerant enzyme of the present invention, were tested for tolerance to mesotrione. Prior greenhouse trials with the transgenic plants, soy transformants were routinely analyzed for the expression and presence of the transgenes using the ELISA protein detection method (see detailed description under item D and H). Only plants recovering in the selection media and having a detectable HPPD transgene protein expression were used for the herbicide tolerance analysis. A DeVries Tracker Sprayer was calibrated prior to each spraying. The chemical formulation used for mesotrione (MST) testing was Callisto® 4 SC formulation supplemented with ammonium sulfate and methylated rape seed oil (Actirob). Spray tests were conducted using 3× the field rate (equivalent to 9 fluid ounce per acre of the same herbicide formulation that containing 40% the active ingredient (AI), mesotrione), which equals 316 grams AI per hectare. Tolerance was evaluated one week after spraying. […] A tolerance rating of “0” was assigned to plants that their shoot apexes, newly emerged trifoliates and some axillary buds were completely bleached. A rating of “1” was assigned to plants having slight tolerance, i.e., the newest plant shoot tissues had some green leaves and are not bleached completely. A rating of “2” was assigned to plants showing moderate tolerance, i.e., more than 50% of the leaf area of the top three trifoliates showing no chlorosis or bleaching damage. A rating of “3” was assigned to plants showing nearly perfect tolerance, i.e., less than 10% of the leaf area showing chlorosis or very slight bleaching.

[1] = tested on: Pseudomonas fluorescens HPPD protein; assay: OD assay: HPPD activity and pI50 from HPP remaining after derivatisation with DNP; format: biochemical; details: for Activity DeltaE/24 min μg Protein: HPPD enzyme activity of the clone; for tolerance (pI50) DKN: inhibitor diketonitrile (DKN), negative log of molar concentration; for tolerance (pI50) MST: inhibitor mesotrione (MST)
Summary of the method: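 pI50 values for Pseudomonas fluorescens HPPD come from two room-temperature formats. The coupled HGD assay continuously follows maleylacetoacetate at 318 nm (pH 7.6 Tris, 600 μM HPP, FeSO4, ascorbate, catalase, inhibitor up to 100 μM) and classifies inhibition type from time-dependence. The endpoint OD assay measures unconsumed 0.5 mM HPP after 24 min via DNP hydrazone at 405 nm (pH 7.8), testing 5.0×10^−6–5.0×10^−4 M inhibitor.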

[2] = tested on: Pseudomonas fluorescens HPPD protein; assay: HGD assay: HPPD activity coupled to HGA dioxygenase, pI50 and type of inhibition (time-course); format: biochemical; details: for tolerance (pI50) Cmpd. 1: inhibitor Cmpd. 1; for tolerance (pI50) Cmpd. 1 / tolerance (pI50) Cmpd. 2 / tolerance (pI50) Cmpd. 3 / tolerance (pI50) Cmpd. 4 / tolerance (pI50) Cmpd. 5 / tolerance (pI50) DKN / tolerance (pI50) MST / tolerance (pI50) TBT: HGD assay; for tolerance (pI50) Cmpd. 2: inhibitor Cmpd. 2; for tolerance (pI50) Cmpd. 3: inhibitor Cmpd. 3; for tolerance (pI50) Cmpd. 4: inhibitor Cmpd. 4; for tolerance (pI50) Cmpd. 5: inhibitor Cmpd. 5; for tolerance (pI50) DKN: inhibitor diketonitrile (DKN); for tolerance (pI50) MST: inhibitor mesotrione (MST); for tolerance (pI50) TBT: inhibitor tembotrione (TBT)
Protocol: HPPD proteins were produced and purified as described in WO2011/076882. The activity of HPPD proteins in absence or presence of HPPD inhibitors was determined using either the so called OD assay or the HGD assay.
• a) The OD assay: The HPPD activity was determined colourimetrically by measuring the amount of HPP remaining in the assay mixture at the end of the incubation period after derivatisation of HPP with 2,4-dinitrophenylhydrazine (DNP) to form an amber-brown colored 2,4-dinitrophenylhydrazone under alkaline conditions. The assay was carried out at room temperature in Greiner F-bottom 96 well microplates. The assay mixture contained 50 mM Tris-HCl pH 7.8, 0.5 mM HPP, 10 mM ascorbate, 650 units of catalase and appropriate amounts of purified HPPD enzyme in a total assay volume of 100 μl. The reaction was started by the addition of enzyme. After an incubation time of 24 minutes, the reaction was stopped by the addition of 50 μl of a solution of 0.04% DNP dissolved in 3.8 N HCl. After a further 15-minute incubation period 100 μl of a 5 N KOH solution was added to the reaction mixture and the amount of unconsumed HPP was measured photometrically at 405 nm. Enzyme activity was calculated as the difference in E405 between assays lacking enzyme (negative control) and the enzyme containing assays (ΔE405=E405(negative control)−E405). Enzyme activity (nmol substrate consumed per min) was calculated from a calibration curve generated from HPP. pI50-values (the negative log value of the concentration of inhibitor necessary to inhibit 50% of the enzyme activity in molar concentration were determined from dose-response plots of HPPD activity versus inhibitor concentration tested (5.0×10^−6, 1.0×10^−5, 2.5×10^−5, 4.0×10^−5, 7.0×10^−5, 1.0×10^−4, 2.0×10^−4 and 5.0×10^−4M) using the 4 Parameter Logistic Model or Sigmoidal Dose-Response Model of the ID Business Solutions Ltd. XLfit software suite. The result “>5.6” means that the inhibition at the lowest inhibitor concentration tested was higher than 85% and the pI50-value could therefore not be precisely calculated within in the range of concentration of inhibitor tested. The result “<2.5” means that the inhibition at the highest inhibitor concentration tested was lower than 25% and the pI50-value could therefore not be precisely calculated within in the range of concentration of inhibitor tested. “n.d.” means not determined. • b) The HGD assay: With the HGD assay HPPD activity was measured at room temperature by adding appropriate amounts of HPPD to a solution of 200 mM Tris-HCl pH 7.6, 10 mM ascorbate, 20 μM FeSO4, 650 units of catalase, 8 μg HGA dioxygenase (HGA: homogentisate) and 600 μM HPP in a total volume of 1 ml. Initial reaction rates in the absence or presence of inhibitors were determined from the increase in absorbance at 318 nm due to the formation of maleylacetoacetate (ε318=11,900 M−1 cm-1). pI50-values (the negative log value of the concentration of inhibitor necessary to inhibit 50% of the enzyme activity in molar concentration were determined from dose-response plots of HPPD activity versus inhibitor concentration tested using the 4 Parameter Logistic Model or Sigmoidal Dose-Response Model of the ID Business Solutions Ltd. XLfit software suite. Due to the UV absorption of the HPPD inhibitors tested, inhibitor concentrations >100 μM could not be tested. The result “<4” means that the inhibition at 100 μM inhibitor concentration was lower than 25% and the pI50-value could therefore not be precisely calculated within in the range of concentration of inhibitor tested. “n.d.” means not determined. The HGD assay allowed to continuously follow HPPD-catalyzed HGA formation over time was therefore used to determine the inhibition type of the HPPD inhibitors tested. […] When in the presence of an inhibitor the HPPD activity was inhibited but the inhibition was found not to […] in a time-dependent manner, the inhibitor was called reversible (abbreviation “rev”). […]

[3] = HT-triple plant expression cassette, mesotrione 3X field rate, seven days after treatment

| Molecule | Activity DeltaE/24 min μg Protein [1] | tolerance (pI50) DKN [1] | tolerance (pI50) MST [1] | tolerance (pI50) Cmpd. 1 [2] | tolerance (pI50) Cmpd. 2 [2] | tolerance (pI50) Cmpd. 3 [2] | tolerance (pI50) Cmpd. 4 [2] | tolerance (pI50) Cmpd. 5 [2] | tolerance (pI50) DKN [2] | tolerance (pI50) MST [2] | tolerance (pI50) TBT [2] | other results |
| --- | --- | --- | --- | --- | --- | --- | --- | --- | --- | --- | --- | --- |
| CS(=O)(=O)c1ccc(C(=O)C2C(=O)CCCC2=O)c([N+](=O)[O-])c1 [mesotrione, 2-[4-(methylsulfonyl)-2-nitrobenzoyl]-1,3-cyclohexanedione, reference compound] |  |  |  |  |  |  |  |  |  |  |  | leaf damage of wild type soybean plants (T0 soybean plants; Callisto 4 SC formulation, 3× field rate, one week after spraying): 100% |
| B1 | 0.36 DeltaE/24 min μg Protein | 3.3 | 3.7 | 6.1 | 5.8 | 5.9 | 6.6 | 6.1 | 4.6 | 5.0 | 6.2 | Number of T0 soybean plants with herbicide tolerance rating 0 (completely bleached) (T0 soybean plants; [3]): 13; Number of T0 soybean plants with herbicide tolerance rating 1 (slight tolerance) (T0 soybean plants; [3]): 18; Number of T0 soybean plants with herbicide tolerance rating 2 (moderate tolerance) (T0 soybean plants; [3]): 35; Number of T0 soybean plants with herbicide tolerance rating 3 (nearly perfect tolerance) (T0 soybean plants; [3]): 12; tolerance (pI50) Cmpd. 2 ([1]; inhibitor Cmpd. 2): 5.4; tolerance (pI50) TBT ([1]; inhibitor tembotrione (TBT)): 4.8; mechanism of inhibition by diketonitrile (DKN), time-course of inhibition [2]: fully reversible inhibitors; mechanism of inhibition by mesotrione (MST), time-course of inhibition [2]: fully reversible inhibitors; mechanism of inhibition by tembotrione (TBT), time-course of inhibition [2]: fully reversible inhibitors |
| B2 | 0.40 DeltaE/24 min μg Protein | 5.0 | 5.3 | 6.2 | 6.8 | 6.4 | 6.7 | 6.1 |  | 5.5 | 6.1 |  |
| B3 | 0.25 DeltaE/24 min μg Protein | 4.3 | 5.1 |  |  |  |  |  | 4.6 | 5.5 | 6.2 |  |
| B4 | 0.66 DeltaE/24 min μg Protein | 5.2 | 5.5 |  |  |  |  |  | 4.9 | 5.0 |  |  |

— patent US10400249B2, “HPPD variants and methods of use” (priority 2014, dated 2019)
